Key:
[1] = biological target: AM1 (CRLR+RAMP2) receptor, lungs of dogs; test: Displacement of labelled human adrenomedullin in the lungs of dogs; assay type: binding, dog; conditions: displacement of labelled hAM
[2] = dog, in vivo, iv
Method: All experimental procedures were performed in accordance with regulations and ethical guidelines from Canadian Council for the Care of Laboratory Animals, and received approval by the animal ethics and research committee of the Montreal Heart Institute. Mongrel dogs weighing between 20-30 kg and presenting negative Dirofilaria imitis blood test results were anesthetized by an initial intravenous dose of pentobarbital sodium (50 mg/kg). Animals were intubated and mechanically ventilated using room air. Cutaneous electrocardiographic leads were installed, and 18F cathlon with three-way was installed on both saphenous vein for 0.9% sodium chloride perfusion, radiolabelled injection and blood collection. A right arterial femoral catheter was also inserted using the Seldinger technique for continuous blood pressure monitoring.
Purified and buffered ^99mTc-DTPA-hAM1-52 samples were injected in right saphenous vein (n=6). A series of 2 mL blood samples were collected 1 min after the initial AM injection for a 10-min period, then repeated every 5 min for the following 50-min period. Blood samples were taken via left saphenous vein. […] The blood samples were then placed in an automatic gamma counter (model 1272 Clinigamma, LKB Wallac, Finland) to determine ^99mTc activity.
Plasma kinetics of ^99mTc-DTPA-hAM1-52 was fitted using a two-phase exponential decay equation with GraphPad Prism version 4.0 software. Time effects on each organ biodistribution were analyzed by two-way repeated measures ANOVA followed, when a significant interaction was found, by Bonferroni/Dunn t-test. Multiple organs biodistribution comparison at 30 minutes was performed by one-way ANOVA followed, when a significant interaction was found, by Bonferroni/Dunn t-test. A P values of <0.05 was considered significant. All results are reported as mean±S.D.

[3] = dog, in vivo
Method: Multi-organic biodistribution of ^99mTc-DTPA-hAM1-52 was evaluated with an Anger camera (420/550 Mobile Radioisotope Gamma Camera; Technicare, Solon, Ohio, USA) equipped with on board computer, and a low-energy parallel-hole collimator (model 14S22014). Following intravenous injection of ^99mTc-DTPA-hAM1-52, dynamic acquisition of the lungs, heart, liver and kidneys was recorded for a 30-min period (one frame/sec during the first minute, then one frame/min for the remaining time). Static acquisitions was also recorded for whole individual organs, including lungs, kidneys, liver, heart, bladder, gallbladder and muzzle, at 30, 60, 120, 240 minutes after initial injection. These recordings were performed both in ventral and dorsal positions.
Dynamic and static acquisitions were evaluated by using Matlab version 7.01 image analysis tools software. The ^99mTc total count, ^99mTc mean count, and region of interest (ROI) size were calculated for each organ. Data correction was applied for 1) radioactive decay, 2) surgical table attenuation (dorsal images only), 3) geometric mean, and 4) organ's attenuation based on transmission factor.

N-Ac hAM: N-terminal acetylated AM showed an IC50 [1] of 0.041 nM.
With “PAMP: synthetic peptide of Table 1, not further defined (ARLDVASEFRKKWNKWALSR) [reference compound]” the IC50 [1] was ≥ 10000 nM.
With “hAM(26-52): human adrenomedullin fragment, amino acids 26-52 (LAHQIYQFTDKDKDNVAPRSKISPQGY)” the IC50 [1] was ≥ 1000 nM.
With “hAM(40-52): human adrenomedullin fragment, amino acids 40-52 (NVAPRSKISPQGY)” the IC50 [1] was ≥ 10000 nM.
“hAM2: AM2, a peptide within the same family as AM [reference compound]” showed an IC50 [1] of 480 nM.
For “CGRP(8-37): CGRP fragment 8-37 [reference compound]”, the IC50 [1] was ≥ 10000 nM.
In the case of “hAM(1-25): human adrenomedullin fragment, amino acids 1-25 (YRQSMNNFQGLRSFGCRFGTCTVQK)”, the IC50 [1] is reported as ≥ 10000 nM.
In the case of `CC[C@H](C)[C@H](NC(=O)[C@H](CCC(N)=O)NC(=O)[C@H](Cc1c[nH]cn1)NC(=O)[C@H](C)NC(=O)[C@H](CC(C)C)NC(=O)[C@H](CCCCN)NC(=O)[C@H](CCC(N)=O)NC(=O)[C@@H](NC(=O)[C@@H](NC(=O)[C@H](CS)NC(=O)[C@@H](NC(=O)CNC(=O)[C@H](Cc1ccccc1)NC(=O)[C@H](CCCNC(=N)N)NC(=O)[C@H](CS)NC(=O)CNC(=O)[C@H](Cc1ccccc1)NC(=O)[C@H](CO)NC(=O)[C@H](CCCNC(=N)N)NC(=O)[C@H](CC(C)C)NC(=O)CNC(=O)[C@H](CCC(N)=O)NC(=O)[C@H](Cc1ccccc1)NC(=O)[C@H](CC(N)=O)NC(=O)[C@H](CC(N)=O)NC(=O)[C@H](CCSC)NC(=O)[C@H](CO)NC(=O)[C@H](CCC(N)=O)NC(=O)[C@H](CCCNC(=N)N)NC(=O)[C@@H](N)Cc1ccc(O)cc1)[C@@H](C)O)[C@@H](C)O)C(C)C)C(=O)N[C@@H](Cc1ccc(O)cc1)C(=O)N[C@@H](CCC(N)=O)C(=O)N[C@@H](Cc1ccccc1)C(=O)N[C@H](C(=O)N[C@@H](CC(=O)O)C(=O)N[C@@H](CCCCN)C(=O)N[C@@H](CC(=O)O)C(=O)N[C@@H](CCCCN)C(=O)N[C@@H](CC(=O)O)C(=O)N[C@@H](CC(N)=O)C(=O)N[C@H](C(=O)N[C@@H](C)C(=O)N1CCC[C@H]1C(=O)N[C@@H](CCCNC(=N)N)C(=O)N[C@@H](CO)C(=O)N[C@@H](CCCCN)C(=O)N[C@H](C(=O)N[C@@H](CO)C(=O)N1CCC[C@H]1C(=O)N[C@@H](CCC(N)=O)C(=O)NCC(=O)N[C@@H](Cc1ccc(O)cc1)C(N)=O)[C@@H](C)CC)C(C)C)[C@@H](C)O` [hAM linear, Linear adrenomedullin], the IC50 [1] is reported as 7.1 nM.
With `CC[C@H](C)[C@H](NC(=O)[C@H](CCC(N)=O)NC(=O)[C@H](Cc1c[nH]cn1)NC(=O)[C@H](C)NC(=O)[C@H](CC(C)C)NC(=O)[C@H](CCCCN)NC(=O)[C@H](CCC(N)=O)NC(=O)[C@@H](NC(=O)[C@@H](NC(=O)[C@@H]1CSSC[C@H](NC(=O)CNC(=O)[C@H](Cc2ccccc2)NC(=O)[C@H](CO)NC(=O)[C@H](CCCNC(=N)N)NC(=O)[C@H](CC(C)C)NC(=O)CNC(=O)[C@H](CCC(N)=O)NC(=O)[C@H](Cc2ccccc2)NC(=O)[C@H](CC(N)=O)NC(=O)[C@H](CC(N)=O)NC(=O)[C@H](CCSC)NC(=O)[C@H](CO)NC(=O)[C@H](CCC(N)=O)NC(=O)[C@H](CCCNC(=N)N)NC(=O)[C@H](Cc2ccc(O)cc2)NC(=O)CN(CCN(CCN(CC(=O)O)CC(=O)O)CC(=O)O)CC(=O)O)C(=O)N[C@@H](CCCNC(=N)N)C(=O)N[C@@H](Cc2ccccc2)C(=O)NCC(=O)N[C@@H]([C@@H](C)O)C(=O)N1)[C@@H](C)O)C(C)C)C(=O)N[C@@H](Cc1ccc(O)cc1)C(=O)N[C@@H](CCC(N)=O)C(=O)N[C@@H](Cc1ccccc1)C(=O)N[C@H](C(=O)N[C@@H](CC(=O)O)C(=O)N[C@@H](CCCCN)C(=O)N[C@@H](CC(=O)O)C(=O)N[C@@H](CCCCN)C(=O)N[C@@H](CC(=O)O)C(=O)N[C@@H](CC(N)=O)C(=O)N[C@H](C(=O)N[C@@H](C)C(=O)N1CCC[C@H]1C(=O)N[C@@H](CCCNC(=N)N)C(=O)N[C@@H](CO)C(=O)N[C@@H](CCCCN)C(=O)N[C@H](C(=O)N[C@@H](CO)C(=O)N1CCC[C@H]1C(=O)N[C@@H](CCC(N)=O)C(=O)NCC(=O)N[C@@H](Cc1ccc(O)cc1)C(N)=O)[C@@H](C)CC)C(C)C)[C@@H](C)O` [^99mTc-DTPA-hAM1-52, metal not drawn] the distribution half-life [2] was 1.75 min, the elimination half-life [2] was 42.14 min and the “ratio of rate constant for exchange between central and peripheral compartments (k1-2/k2-1)” value [2] was 24.09. For the same compound, the “bladder retention, % of the injected dose” value [3] was 5.67±1.75%, the dynamic multi-organic biodistribution [3] was “significant pulmonary first pass retention” and the “gallbladder retention, % of the injected dose” value [3] was 0.96±0.38%. For the same compound, the “heart retention, % of the injected dose” value [3] was 7.17±2.04%, the “kidneys retention, % of the injected dose” value [3] was 19.17±3.06% and the “liver retention, % of the injected dose” value [3] was 11.67±1.37%. The “lung retention, % of the injected dose” value [3] was 15.83±2.32%, the “lungs retention, % of the injected dose” value [3] was 27.00±2.76% and the “muzzle retention, % of the injected dose” value [3] was 1.17±0.41%.
Work on “hAM(13-52): human adrenomedullin fragment, amino acids 13-52” yielded an IC50 [1] of 34 nM.
Work on “hAM2(16-47): fragment 16-47 of hAM2 (QVQNLSHRLWQLMGPAGRQDSAPVDPSSPHSY) [reference compound]” yielded an IC50 [1] of 980 nM.
